Read-outs that look alike come from different tables or passages of the source.

Holding throughout (experiment): EMSA
On the technique in general: A gel shift assay detects complexes by their altered migration in electrophoresis.

In data set [1] the target is T1, HuR (wild type) (UniProt Q15717 1-326).
A further data set deals with HuRΔ3 (UniProt Q15717 1-242, del243-326).
The next data set addresses HuRΔH (UniProt Q15717 1-326, del186-242).
The target in data set [2] is T1, HuR (wild type). The source holds these as a separate data set.

B1: ΔHBS_20_MBSp (ssRNA)
RNA: GGAGGUCCAAAGAGUGAGACUGACUAUACAACCUACUACCUCAACGUUACACU
As for B1, the binding result with HuR (wild type) [1] is reported as “no binding”.

B2: HBSMut_20_MBSp (ssRNA)
RNA: GGUAUAUAUGUCAUGCAUACGUAUGUGCGUAUCUACUAGGUCCAAAGAGUGAGACUGACUAUACAACCUACUACCUCAACGUUACACU
Turning to B2, in the data set with HuR (wild type) [1], the binding result is “no binding”.

B3: HBS_50_MBSp (ssRNA)
RNA: GGUAUUUAUUUAUUUAUUUGUUUGUUUGUUUUAUUGCUGUACGAGAGAGUCACUGUGCUGAUGUGGACUCAACAUCUGAUGAGCAACUAUACAACCUACUACCUCAACGUUACACU
With B3, the binding result with HuRΔ3, with HuRΔH and with HuR (wild type) [2] was “binds” each time.

The record behind these values is article PMC3367187.
